Laboratory results taken from US10465005B2, “JAML specific binding agents, antibodies, and uses related thereto” (Emory University, priority 2011, dated 2019).
Entries after “also recorded” stand apart in the source; their conditions may differ. Each block holds one molecule with its values, some of them ahead of it.

Key:
JAML D1 domain = molecular target: T1, JAML D1 domain (Homo sapiens, UniProt Q86YT9); experiment: Domain specificity ELISA on sJAML-His, sJAML.D1-Fc, sJAML.D2-Fc; type: binding; details: sJAML.D2-Fc coated, FIG. 1B
T1 construct: made in house; host or cells: HEK293T
T1 sequence (Q86YT9 20-140): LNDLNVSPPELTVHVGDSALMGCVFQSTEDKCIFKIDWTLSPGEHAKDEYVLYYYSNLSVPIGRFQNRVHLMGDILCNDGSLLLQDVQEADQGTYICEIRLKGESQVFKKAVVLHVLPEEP
Procedure: FIG. 1B. sJAML-His and purified soluble, mutant fragments of JAML, tagged with rabbit Fc (membrane distal Ig loop: sJAML.D1-Fc and membrane proximal Ig loop: sJAML.D2-Fc) were coated on Immulon II microtiter wells overnight at 4° C. After blocking and washing, antibodies were added to wells for 1 hour and the assay developed with HRP conjugated goat anti mouse Ig (H+L). After addition of ABTS, microtiter wells were analyzed in a microtiter plate reader at 405 nm wavelength. M3 is polyclonal mouse serum collected from the sJAML-His immunized mouse before the fusion. 9E10 anti Myc was used as control.
To determine the domain specificity of monoclonal antibodies, soluble full length JAML.D1D2-His (sJAML-His), truncated extracellular fragments: soluble membrane distal fragment JAML.D1-Fc (sJAML.D1-Fc), and soluble membrane proximal fragment JAML.D2-Fc (sJAML.D2-Fc), both tagged with rabbit Fc, were generated and tested for antibody binding. […] Polyclonal serum (M3) was collected from the immunized mouse prior the fusion and was used as the positive control in the binding assay.

[1] = molecular target: T2, CAR binding to JAML on CHO cells (Homo sapiens, UniProt Q86YT9); experiment: CAR-GST binding to CHO-JAML by flow cytometry; type: cell-based; details: CAR-GST 20 μg/ml, mAbs 30 μg/ml, FIG. 7C
T2 construct: expressed in transfected cells
T2 sequence (Q86YT9 20-394): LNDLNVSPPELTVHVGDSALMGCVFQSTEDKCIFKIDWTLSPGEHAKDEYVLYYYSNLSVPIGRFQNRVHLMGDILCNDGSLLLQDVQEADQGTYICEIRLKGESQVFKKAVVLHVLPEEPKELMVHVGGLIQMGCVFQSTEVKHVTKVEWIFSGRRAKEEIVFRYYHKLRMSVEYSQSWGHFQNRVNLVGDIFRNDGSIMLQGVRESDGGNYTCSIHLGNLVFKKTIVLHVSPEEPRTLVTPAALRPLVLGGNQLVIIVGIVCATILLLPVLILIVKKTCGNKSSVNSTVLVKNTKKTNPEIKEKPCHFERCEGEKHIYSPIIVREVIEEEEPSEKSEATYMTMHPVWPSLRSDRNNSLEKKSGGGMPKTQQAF
Procedure: FIG. 7C. CHO-K1 cells stably expressing JAML (CHO-JAML) were incubated with CAR-GST alone (20 μg/ml, left panel) or in the presence of DW216 and DW100 mAbs (30 μg/ml, right panel) as described for sJAML and the binding was measured by flow cytometry.
(§1) As it has been established that epithelial CAR is the ligand for JAML on PMN. Whether shed JAML, as well as the recombinant protein could bind to CAR was investigated. To do this, CHO cells stably expressing CAR protein (CHO-CAR) were incubated with either supernatants from PMA activated differentiated PLB-985 (that release high levels of soluble JAML upon activation, (FIG. 2)), or recombinant soluble JAML and stained with DW216 to detect bound JAML. […] The same observation was verified by IF (FIG. 7B). […] The calcium depletion disrupts intercellular junctions of the epithelium and allows for better penetration of soluble JAML.

[2] = tested on: PMN transepithelial migration; experiment: PMN transepithelial migration; type: cell-based, human
JAML binding with CAR = molecular target: T3, JAML binding with CAR (Homo sapiens, UniProt Q86YT9); experiment: CAR binding assay (ELISA, CAR-GST on immobilized sJAML-His); details: CAR-GST 10 μg/ml on immobilized sJAML-His preincubated with antibody; FIG. 1C
T3 construct: soluble JAMLD1D2 was truncated and tagged after residue Leucine259; made in house; host or cells: HEK293T (sJAML-His)
T3 sequence (Q86YT9 20-259): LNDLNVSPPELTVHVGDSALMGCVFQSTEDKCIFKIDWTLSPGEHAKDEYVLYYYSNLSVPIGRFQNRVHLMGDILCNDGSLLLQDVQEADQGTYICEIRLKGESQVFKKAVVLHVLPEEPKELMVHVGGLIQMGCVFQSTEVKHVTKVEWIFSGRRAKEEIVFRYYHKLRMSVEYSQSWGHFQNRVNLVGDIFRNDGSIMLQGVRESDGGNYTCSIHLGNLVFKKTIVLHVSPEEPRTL
Procedure: FIG. 1C. CAR binding assay: sJAML-His was coated in Immulon II microtiter microtiter wells overnight, at 4° C. Microtiter wells were washed and blocked and 100 μl antibody solutions were added to wells for 1 hour RT. After washing, CAR-GST was added at 10 μg/ml for 1 hour RT, washed and the assay was developed with HRP conjugated goat anti GST followed by ABTS and OD measurement at 405 nm.
Because certain antibodies recognize the membrane distal domain of JAML, their ability to inhibit binding to CAR was tested. By ELISA, the levels of soluble CAR-GST bound to immobilized sJAML-His preincubated with anti JAML antibodies was measured. […] Thus, these antibodies recognize three different epitopes on JAML and that both DW100 and DW55 bind epitopes close to the JAML binding site. Using a cell aggregation assay, the possibility that DW100 could inhibit the binding of JAML to CAR expressed on the surface of cells was examined. […] This again confirms previously described JAML binding to CAR, as well as the specificity of DW100 (blocking) and DW216 (non-blocking) Abs to JAML.

CAR on CHO-CAR cells = molecular target: T4, CAR on CHO-CAR cells (Homo sapiens, UniProt P78310); experiment: Soluble JAML binding to CHO-CAR by flow cytometry; type: cell-based; details: sJAML 20 μg/ml, 1 h at 4° C., DW216 detection, FIG. 7A
T4 construct: The full length gene of CAR was cloned into pcDNA3.1-Hygromycin; expressed in transfected cells
T4 sequence (P78310 20-365): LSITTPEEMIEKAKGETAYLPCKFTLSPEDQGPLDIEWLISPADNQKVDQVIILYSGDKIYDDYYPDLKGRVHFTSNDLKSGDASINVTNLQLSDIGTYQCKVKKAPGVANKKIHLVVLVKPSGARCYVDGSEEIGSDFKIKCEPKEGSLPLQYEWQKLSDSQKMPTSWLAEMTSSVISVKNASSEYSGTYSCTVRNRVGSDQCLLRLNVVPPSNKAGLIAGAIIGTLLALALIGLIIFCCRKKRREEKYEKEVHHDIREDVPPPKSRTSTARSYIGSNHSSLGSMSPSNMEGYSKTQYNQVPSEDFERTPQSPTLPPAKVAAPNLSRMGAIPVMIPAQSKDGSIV
Procedure: CHO-K1 cells stably expressing CAR (CHO-CAR) were incubated with supernatants from PMA activated PLB cells (˜5˜10^7 cell activated in 1 ml, left panel) or recombinant soluble JAML-His (sJAML, 20 μg/ml, right panel) for 1 h at 4° C. JAML binding to CAR on the cell surface was measured by flow cytometry and compared to CHO-CAR cells alone (NoTx). The flow micrograph is representative of 4 independent experiments.
as §1

prevention of CAR-GST binding to CHO-JAML [1]: blocked by DW100
B1: DW100: monoclonal anti-human JAML antibody (IgG1,κ), hybridoma ATCC PTA-13051; VH SEQ ID NO:19, VL SEQ ID NO:22 (antibody, V domains shown)
VH: DVQLVESGAELVRPGASKLSCKALAYTFTDYEMHWVKQTPVHGLEWIGIIHPGSGGTVYNQKFKGKATLTADKSSSTAYMELSSLTSEDSTVYYCTRRRYYGSSYNWYFDVWGAGN
VL: VLTQSPASLAASVGETVTITCRASENIYYSLAWYQQKQGKSPQLLIYNANSLEDGVPSRFSGSGSGTQYSLKINSMQPEDTATYFCEQTYDVPLTFGAGTKLEL
JAML domain bound (JAML D1 domain): binds the D1 domain of JAML; also recorded: specifically binds JAML D1 domain | inhibitory effect on PMN transepithelial migration [2]: ~15% | inhibition of CAR binding to JAML (JAML binding with CAR): inhibit human JAML binding with CAR; also recorded: completely inhibited JAML/CAR interactions; also recorded: completely inhibited binding of JAML to CAR

B2: sJAML: recombinant soluble fragment of JAML.D1D2 tagged with 10 His residues at the C-terminus (protein)
chain: T3 sequence (Q86YT9 20-259)
JAML binding to CHO-CAR (CAR on CHO-CAR cells): JAML binding to CHO-CAR was detected in both cases
